The record followed here is patent publication US20120195893A1 (UNITED STATES OF AMERICA AS REPRESENTED BY THE SECRETARY OF …, published 2012).

In this test the target is T1, mouse DEC205 receptor (mouse, UniProt Q60767 28-1723).
T1 construct: whole, on cells; also called DEC25 receptor; CD205
The test is described as follows: flow cytometry on DEC205-transfected A204 cells.

B1: PyTh1 chimeric molecule (other)
heavy: EVKLLESGGGLVQPGGSLRLSCAASGFTFNDFYMNWIRQPPGQAPEWLGVIRNKGNGYTTEVNTSVKGRFTISRDNTQNILYLQMNSLRAEDTAIYYCARGGPYYYSGDDAPYWGQGVMVTVSSAKTTAPSVYPLAPVCGDTTGSSVTLGCLVKGYFPEPVTLTWNSGSLSSGVHTFPAVLQSDLYTLSSSVTVTSSTWPSQSITCNVAHPASSTKVDKKIEPRGPTIKPCPPCKCPAPNLLGGPSVFIFPPKIKDVLMISLSPIVTCVVVDVSEDDPDVQISWFVNNVEVHTAQTQTHREDYNSTLRVVSALPIQHQDWMSGKEFKCKVNNKDLPAPIERTISKPKGSVRAPQVYVLPPPEEEMTKKQVTLTCMVTDFMPEDIYVEWTNNGKTELNYKNTEPVLDSDGSYFMYSKLRVEKKNWVERNSYSCSVVHEGLHNHHTTKSFSQTPGKGGGGSGGGGSGGGGSVDEQLSKSVKDKVLLPCRYNSPHEDECEDRIYWQKHDKVVLSVIAGKLKVWPEYKNRTLYDNTTYSLIILGLVLSDRGTYSCVVQKKERGTYEVKHLALVKLSIKADFSTPNITESGNPSADTKRITCFASGGFPKPRFSWLENGRELPGINTTISQDPESELYTISSQLDFNTTRNHTIKCLIKYGDAHVSEDFTWEKPPEDPPDSK
light: DIQMTQSPSFLSTSLGNSITITCHASQNIKGWLAWYQQKSGNAPQLLIYKASSLQSGVPSRFSGSGSGTDYIFTISNLQPEDIATYYCQHYQSFPWTFGGGTKLELKRDAAPTVSIFPPSSEQLTSGGASVVCFLNNFYPKDINVKWKIDGSERQNGVLNSWTDQDSKDSTYSMSSTLTLTKDEYERHNSYTCEATHKTSTSPIVKSFNRNECGGGGSGGGGMGGGGSYNRNIVNRLLGDALNGKPEEK
notes: Mouse IgG2a scaffold with the variable domains of rat anti-mouse DEC205, made in SP20 myeloma cells; also called PhyTh1; PyTh1 vaccine
Regarding B1, the binding result is “binds”.
